Read-outs that look alike come from different tables or passages of the source.

The target of assay [1] is T1, human IFNAR1, full length (IFNAR1-aa1-557) (human, UniProt P17181 28-557).
T1 sequence (looked up): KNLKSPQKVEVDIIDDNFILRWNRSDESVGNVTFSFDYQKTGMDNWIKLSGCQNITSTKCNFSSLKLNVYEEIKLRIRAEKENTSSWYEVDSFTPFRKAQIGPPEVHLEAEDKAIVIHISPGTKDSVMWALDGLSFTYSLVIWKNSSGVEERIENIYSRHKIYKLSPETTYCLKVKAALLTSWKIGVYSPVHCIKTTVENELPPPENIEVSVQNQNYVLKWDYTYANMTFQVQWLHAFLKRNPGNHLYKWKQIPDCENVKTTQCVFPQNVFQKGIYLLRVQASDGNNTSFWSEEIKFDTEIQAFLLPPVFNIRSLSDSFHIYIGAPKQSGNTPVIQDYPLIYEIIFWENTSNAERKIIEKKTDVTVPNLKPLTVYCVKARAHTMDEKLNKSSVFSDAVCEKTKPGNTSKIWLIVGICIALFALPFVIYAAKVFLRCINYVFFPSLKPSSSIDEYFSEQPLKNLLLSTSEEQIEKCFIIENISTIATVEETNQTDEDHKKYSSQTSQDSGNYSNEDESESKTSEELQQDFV
The experiment in a line: cell-based or functional assay.

Assay [2] has as its target T2, human/mouse chimeric IFNAR1 variant IFNAR1-m149-214 (human, with residues 149-214 replaced …, UniProt P17181 28-557).
T2 construct: expressed on 293T cells
T2 chain: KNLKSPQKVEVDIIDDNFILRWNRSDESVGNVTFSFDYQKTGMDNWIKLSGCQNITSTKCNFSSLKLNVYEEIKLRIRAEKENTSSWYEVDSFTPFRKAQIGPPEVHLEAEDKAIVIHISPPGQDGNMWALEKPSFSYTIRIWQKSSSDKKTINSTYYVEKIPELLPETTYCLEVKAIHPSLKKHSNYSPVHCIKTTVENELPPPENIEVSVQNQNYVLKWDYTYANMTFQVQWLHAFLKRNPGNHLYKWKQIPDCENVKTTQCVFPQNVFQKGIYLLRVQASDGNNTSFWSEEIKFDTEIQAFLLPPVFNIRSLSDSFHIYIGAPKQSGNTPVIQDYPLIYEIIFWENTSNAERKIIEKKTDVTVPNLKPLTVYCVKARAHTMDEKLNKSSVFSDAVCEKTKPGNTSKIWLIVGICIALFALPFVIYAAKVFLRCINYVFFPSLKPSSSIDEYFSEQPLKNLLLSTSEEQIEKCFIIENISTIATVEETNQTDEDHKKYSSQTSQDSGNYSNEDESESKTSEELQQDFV
The experiment in a line: flow cytometry, 293T cells overexpressing IFNAR1-m149-214, MFI. A general note: In flow cytometry, cells or beads pass a laser one at a time.
Method: (§1) After the incubation, the cells were centrifuged and re-suspended with 200 μL of FACS buffer, before next centrifugation and re-suspension.
(§2) PE-labeled goat anti-mouse IgG antibody (Biolegend) diluted in FACS buffer at 1:400 was added to each well. The cells were re-suspended and incubated at 4° C. for 30 min in the dark. After the incubation, the plate was centrifuged, the supernatant was discarded, and the cells were washed once as described above and re-suspended by adding 200 μL FACS buffer. Finally, the re-suspended cells were analyzed using a flow cytometer Guava (Millipore) for cellular GFP and PE signals.

Assay [3] deals with T2, human/mouse chimeric IFNAR1 variant …. Described as above.
Method: as §1, §2

B1: anti-human IFNAR1 monoclonal antibody 7G4 (antibody, V domains shown)
VH: QVQLQQPGAELVKPGAPVKLSCKASGYTFTSYWMNWVRQRPGRGLEWIGKIDPSDSETHFNQKFRDKATLTVDKSSTTAYIQLSSLTSEDSAVYYCARGGRISFDYDAALDYWGQGTSVTVSS
VL: DILMTQSSSSFSVSLGDRVTITCKSSEVIYNRLAWFQQKPGNAPRLLISGATTLESGFPSRFSGSGSGKDYTLSITSLQIEDVSTYYCQQYWNKPFTFGSGTKLEVK
notes: Mouse monoclonal antibody from hybridoma CGMCC No. 16286
For the molecule B1, in assay [1], the “fold decrease in percentage of GFP positive reporter cells with serum from SLE patients” value is around 3 fold. The binding result in assay [2] is on record as “binds”.

B2: anti-human IFNAR1 monoclonal antibody 10C5 (antibody, V domains shown)
VH: QVQLQQPGTELVKPGSPVKLSCKASGYTFTSFWLNWVQQRPGRGLEWIGKIDPSDSEIRYNQKFKDKATLTVDKSSNTAYIQLSSLTSEDSAVYYCARGGGIYYDYDGAMDYWGQGTSVTVSS
VL: DIQMTQSSSSFSVSLGDRLTITCKASEVIYNRLAWFQQKPGNAPRLLISGATSLETGVPSRFSGSGSRKDYTLSISSLQTEDVATYYCQQYWSSPFTFGSGTKLEIK
notes: Mouse monoclonal antibody from hybridoma CGMCC No. 16287
As for B2, the “fold decrease in percentage of GFP positive reporter cells with serum from SLE patients” value in assay [1] was around 3 fold. For the same molecule, in assay [3], the binding result is reported as “binds”.

These data come from US20220144957A1 (IMMUNECENT BIOTECHNOLOGY, published 2022).
